Reference: paper PMC9124243
Read-outs that look alike come from different tables or passages of the source.

Legend:
[1] = target: Mycobacterium tuberculosis DnaK, wild-type, full-length (M. tuberculosis) (UniProt P9WMJ9)
[2] = target: Mycobacterium tuberculosis DnaK, wild-type, full-length (M. tuberculosis) (UniProt P9WMJ9); remark: listed apart in the source

Substance	IC50 in DnaK-DnaJ2-GrpE ATPase dose-response assay [1]	IC50 in DnaK-DnaJ2-GrpE ATPase dose-response assay [2]
Pz-Val-Val-Pro-Leu-OH (2) (peptide)	192 µM	–
Pz-Val-Val-Pro-photoLeu-OMe (7) (peptide)	–	52.5 µM
